Results published in the supplement of paper PMC9112550, “Optimization of the antimicrobial peptide Bac7 by deep mutational scanning” (BMC Biology, 2022).

tested on: Escherichia coli TOP10; test: shrunken log2 fold change of peptide-encoding DNA abundance (4.5 h post-induction vs induction); higher = less antimicrobial activity (less host growth inhibition); details: time post-induction: 4.5 h; library: site-saturation at positions 5, 18, 19, 20
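Also: peptides expressed intracellularly from a pBAD plasmid library in pooled LB shake-flask culture, induced with 0.3% L-arabinose, DNA abundance read by NGS, three biological replicates, DESeq2 with apeglm shrinkage.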

Sequence | shrunken log2 fold change
RRIRSRPPRLPRPRPRPMNPPRP | -0.0648
RRIRSRPPRLPRPRPRPMNQPRP | -0.0276
RRIRSRPPRLPRPRPRPMNTPRP | -0.647
RRIRSRPPRLPRPRPRPMPPPRP | 0.435
RRIRSRPPRLPRPRPRPMPVPRP | 0.0216
RRIRSRPPRLPRPRPRPMQGPRP | -0.181
RRIRSRPPRLPRPRPRPMRFPRP | 0.378
RRIRSRPPRLPRPRPRPMRGPRP | 0.944
RRIRSRPPRLPRPRPRPMRNPRP | 0.628
RRIRSRPPRLPRPRPRPMRRPRP | 0.732
RRIRSRPPRLPRPRPRPMRVPRP | 0.691
RRIRSRPPRLPRPRPRPMSCPRP | -0.067
RRIRSRPPRLPRPRPRPMSHPRP | -0.109
RRIRSRPPRLPRPRPRPMSQPRP | -0.0303
RRIRSRPPRLPRPRPRPMVHPRP | -0.026
RRIRSRPPRLPRPRPRPMVMPRP | 0.0113
RRIRSRPPRLPRPRPRPMWLPRP | 0.0415
RRIRSRPPRLPRPRPRPMYQPRP | -0.594
RRIRSRPPRLPRPRPRPMYRPRP | -0.172
RRIRSRPPRLPRPRPRPMYVPRP | -0.84
RRIRSRPPRLPRPRPRPNADPRP | 0.113
RRIRSRPPRLPRPRPRPNAGPRP | 0.0362

Sequence | shrunken log2 fold change
RRIRSRPPRLPRPRPRPNAMPRP | -0.0346
RRIRSRPPRLPRPRPRPNCEPRP | -0.133
RRIRSRPPRLPRPRPRPNFFPRP | 0.179
RRIRSRPPRLPRPRPRPNHGPRP | -0.4
RRIRSRPPRLPRPRPRPNHKPRP | -0.738
RRIRSRPPRLPRPRPRPNKSPRP | -0.266
RRIRSRPPRLPRPRPRPNMCPRP | -0.138
RRIRSRPPRLPRPRPRPNMMPRP | -0.166
RRIRSRPPRLPRPRPRPNNAPRP | -0.38
RRIRSRPPRLPRPRPRPNPDPRP | -0.123
RRIRSRPPRLPRPRPRPNPIPRP | 0.0127
RRIRSRPPRLPRPRPRPNREPRP | -0.138
RRIRSRPPRLPRPRPRPNRTPRP | -0.0602
RRIRSRPPRLPRPRPRPNSNPRP | -0.857
RRIRSRPPRLPRPRPRPNTYPRP | -0.232
RRIRSRPPRLPRPRPRPNWLPRP | 0.18
RRIRSRPPRLPRPRPRPNWTPRP | -0.000246
RRIRSRPPRLPRPRPRPNWVPRP | -0.214
RRIRSRPPRLPRPRPRPNYTPRP | -0.479
RRIRSRPPRLPRPRPRPPADPRP | 0.981
RRIRSRPPRLPRPRPRPPAFPRP | -0.00342
RRIRSRPPRLPRPRPRPPAKPRP | 1.05

Sequence | shrunken log2 fold change
RRIRSRPPRLPRPRPRPPDGPRP | 0.447
RRIRSRPPRLPRPRPRPPEVPRP | 0.287
RRIRSRPPRLPRPRPRPPFFPRP | 0.143
RRIRSRPPRLPRPRPRPPFNPRP | -0.298
RRIRSRPPRLPRPRPRPPIDPRP | -0.0487
RRIRSRPPRLPRPRPRPPIRPRP | 0.129
RRIRSRPPRLPRPRPRPPIWPRP | 0.0326
RRIRSRPPRLPRPRPRPPKAPRP | -0.259
RRIRSRPPRLPRPRPRPPLEPRP | 0.367
RRIRSRPPRLPRPRPRPPLHPRP | -0.00448
RRIRSRPPRLPRPRPRPPLRPRP | 0.249
RRIRSRPPRLPRPRPRPPMCPRP | 0.00128
RRIRSRPPRLPRPRPRPPMKPRP | 0.194
RRIRSRPPRLPRPRPRPPNDPRP | -0.0183
RRIRSRPPRLPRPRPRPPNSPRP | -0.251
RRIRSRPPRLPRPRPRPPPHPRP | 0.752
RRIRSRPPRLPRPRPRPPPVPRP | 0.745
RRIRSRPPRLPRPRPRPPQEPRP | 0.295
RRIRSRPPRLPRPRPRPPQPPRP | 0.432
RRIRSRPPRLPRPRPRPPSLPRP | -0.119
RRIRSRPPRLPRPRPRPPSRPRP | 0.263
RRIRSRPPRLPRPRPRPPTWPRP | 0.326

Sequence | shrunken log2 fold change
RRIRSRPPRLPRPRPRPPVKPRP | -0.136
RRIRSRPPRLPRPRPRPPVWPRP | 0.48
RRIRSRPPRLPRPRPRPPWSPRP | 0.25
RRIRSRPPRLPRPRPRPPYIPRP | -0.296
RRIRSRPPRLPRPRPRPQAAPRP | 0.544
RRIRSRPPRLPRPRPRPQADPRP | -0.0788
RRIRSRPPRLPRPRPRPQANPRP | -0.0559
RRIRSRPPRLPRPRPRPQCNPRP | -0.13
RRIRSRPPRLPRPRPRPQDRPRP | -0.0318
RRIRSRPPRLPRPRPRPQGAPRP | 2.34
RRIRSRPPRLPRPRPRPQHAPRP | -0.153
RRIRSRPPRLPRPRPRPQHWPRP | 0.015
RRIRSRPPRLPRPRPRPQKIPRP | -0.53
RRIRSRPPRLPRPRPRPQKWPRP | -0.0746
RRIRSRPPRLPRPRPRPQMVPRP | -0.102
RRIRSRPPRLPRPRPRPQMYPRP | -0.159
RRIRSRPPRLPRPRPRPQPVPRP | 0.0573
RRIRSRPPRLPRPRPRPQQNPRP | -0.0687
RRIRSRPPRLPRPRPRPQQRPRP | 0.153
RRIRSRPPRLPRPRPRPQQTPRP | 0.0905
RRIRSRPPRLPRPRPRPQREPRP | -0.019
RRIRSRPPRLPRPRPRPQSCPRP | -0.00487

Sequence | shrunken log2 fold change
RRIRSRPPRLPRPRPRPQSYPRP | 0.107
RRIRSRPPRLPRPRPRPQTMPRP | -0.35
RRIRSRPPRLPRPRPRPQWLPRP | -0.32
RRIRSRPPRLPRPRPRPQYDPRP | -0.352
RRIRSRPPRLPRPRPRPQYTPRP | -0.983
RRIRSRPPRLPRPRPRPRADPRP | 0.387
RRIRSRPPRLPRPRPRPRCKPRP | -0.134
RRIRSRPPRLPRPRPRPRCMPRP | -0.0959
RRIRSRPPRLPRPRPRPRCNPRP | 0.124
RRIRSRPPRLPRPRPRPREEPRP | 0.369
RRIRSRPPRLPRPRPRPRERPRP | 0.431
RRIRSRPPRLPRPRPRPREVPRP | -0.0353
RRIRSRPPRLPRPRPRPRFRPRP | 0.203
RRIRSRPPRLPRPRPRPRGWPRP | 0.624
RRIRSRPPRLPRPRPRPRHEPRP | -0.0516
RRIRSRPPRLPRPRPRPRHRPRP | 0.121
RRIRSRPPRLPRPRPRPRKCPRP | 0.149
RRIRSRPPRLPRPRPRPRNCPRP | 0.5
RRIRSRPPRLPRPRPRPRNRPRP | -0.198
RRIRSRPPRLPRPRPRPRPFPRP | 0.188
RRIRSRPPRLPRPRPRPRRLPRP | 0.193
